The text below walks through data of publication PMC7382501.

In this series the target is FasR full-length (crystallisation) (Mycobacterium tuberculosis H37Rv, UniProt O05858 1-228). Briefly: X-ray crystallography. Particulars: protein: recombinant; tags: N-terminal His6-TEV, likely cleaved with TEV; chain copies: 2; blunt.

B1: Pfas25nt (FwPfas25nt/RvPfas25nt) (dsDNA)
DNA 1: TACCCGTACGTAGAACTCGCCAGTA
DNA 2: TACTGGCGAGTTCTACGTACGGGTA
Take B1: the binding result is “binds”.
